Assay: yeast display, Sf9 membrane polyspecificity reagent, FACS + sequencing; frameworks hold sequencing errors
Outline: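 Polyreactivity labels are assigned by the sorting gate from which each nanobody was recovered. The gates were low and high (top ~1%), set on anti-HA fluorescence for expression and streptavidin fluorescence for reagent binding. Before sorting, galactose-induced (36–48 hours) yeast display cells were stained for 1 hour at 4 °C with 10% biotinylated, detergent-solubilized Sf9 membrane reagent.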
For “QVQLVESGGGLVQAGGSLRLSCAASGFTFRKYAMGWYRPAPGKERELVAGITSGGSTNYADSVKGRFTISRDNAKNTVYLQMNSLKPEDTSVYYCNAARYYAYIGDYWGQGTQVTVSS”, the “polyreactivity (PSR sort gate)” value was “high polyreactivity”.
With “QVQLVESGGGLVQAGGSLRLSCAASGFTFRLYVMGWYIQAPGKERELVAAISSRGGSTYYADSLKGRFTISRDNAKNTVNLQMNSLKPEDTAVYYCAADRPRGRETVDYWGQGTQVTVSS” the “polyreactivity (PSR sort gate)” value was “high polyreactivity”.
With “QVQLVESGGGLVQAGGSLRLSCAASGFTFRNYAMGWYRQAPGKERELVAAISKSGGSTYYADSVKGRFTISRDNAKNTVYLQMNSLKPEDTAVYYCATDYLYVYGFEYYYWGQGTQVTVSS” the “polyreactivity (PSR sort gate)” value was “high polyreactivity”.
In the case of “QVQLVESGGGLVQAGGSLRLSCAASGFTFRNYAMGWYRQAPGKERELVAAISQSGGITYYADTVKGRFTISRDNAKNTVYLQMYSLKPEDTAVYYCAAERFPRSSKGYFRTYDYWGQGTQVTVSS”, the “polyreactivity (PSR sort gate)” value was “high polyreactivity”.
In the case of “QVQLVESGGGLVQAGGSLRLSCAASGFTFRQYAMGWYRQAPGKERELVAAISSGGSTYYADSVKGRFTISRDNAKNTVYLQMNSLKPEDTAVYYCNAVARYYVAYDMYWGQGTQVTVSS”, the “polyreactivity (PSR sort gate)” value was “high polyreactivity”.
With “QVQLVESGGGLVQAGGSLRLSCAASGFTFRRNAMGWYRQAPGKERELVAAITYNGGTTYYADSVKGRFTISRDNAKNTVYLLMNSLKPEDTAVYYCNAPYGRQGYDYWGQGTQVTVSS” the “polyreactivity (PSR sort gate)” value was “low polyreactivity”.
In the case of “QVQLVESGGGLVQAGGSLRLSCAASGFTFRRYAMGGYRQAPGKERELVAAISANGGSTYYADSVKGRFTISRDNAKNTVYLQMNSLKPEDTAVYYCNARKYTQSIHYDYWGQGTQVTVSS”, the “polyreactivity (PSR sort gate)” value was “high polyreactivity”.
For “QVQLVESGGGLVQAGGSLRLSCAASGFTFRRYAMGWYRQAPGKERELVASISWTGGSTHYADSVKGRFTISRDNAKNTVYLQMNSLKPEDSAVYYSNTVWYYLRSFNIDHYYDYWGQGTQVTVSS”, the “polyreactivity (PSR sort gate)” value was “high polyreactivity”.
With “QVQLVESGGGLVQAGGSLRLSCAASGFTFRRYAMGWYRQAPGKEREMVAVINVSDGSTYYADSVKGRFTISRDNAKNTVYLQMNSLKPEDTAVYYCAAYLYNRPYQLPGYYDGYGYWGQGTQVTVSS” the “polyreactivity (PSR sort gate)” value was “low polyreactivity”.
With “QVQLVESGGGLVQAGGSLRLSCAASGFTFRRYAMGWYRQAPGQDRELVAAISYRGGTYYADSVKGRFTISRDNAKNTVYLQMNSLKPEDTAVYYCNARYRGKYSSYGYWGQGTQVTVSS” the “polyreactivity (PSR sort gate)” value was “high polyreactivity”.
In the case of “QVQLVESGGGLVQAGGSLRLSCAASGFTFRRYTMGWYRQAPGKERELVAAISGSGGSTYYADSVKGRFTISRDNAKNTVYLQMNSLKPEDTAVYYCNAPYLHYVIVFTDYSQRYDYWGQGTQVTVSS”, the “polyreactivity (PSR sort gate)” value was “high polyreactivity”.
For “QVQLVESGGGLVQAGGSLRLSCAASGFTFRSNMGWYRQAPGKEREFVAAITKSGGSTYYADSVKGRFTISRDNAKNTVYLQMNSLKPEDTAVYYCATKVDTYVFRYYYWGQGTQVTVSS”, the “polyreactivity (PSR sort gate)” value was “high polyreactivity”.
For “QVQLVESGGGLVQAGGSLRLSCAASGFTFRSYAMGWYRQAPGKVRELVAAISLGGTSTYYADSVKGRFTISRDNAKNTVYLPMNSLKPEDTAVYYCAARSYGHYGYWGQGTQVTVSS”, the “polyreactivity (PSR sort gate)” value was “high polyreactivity”.
With “QVQLVESGGGLVQAGGSLRLSCAASGFTFRTNTMGWYRQAPGKERELVAAITYRGGRTYADSVKGRFTISRDNAKNTVYLQMNSLKPEDTAVYYCAARHYRGTAVDYWGQGTQVTVSS” the “polyreactivity (PSR sort gate)” value was “high polyreactivity”.
With “QVQLVESGGGLVQAGGSLRLSCAASGFTFRTNVMGWYRQAPGKERELVAVITRDGGSTYYADSVKGRFTISRDNAKNTVYLQMNSLKPEDTAVYYCNAAAFINFILYDYWGQGTQVTVSS” the “polyreactivity (PSR sort gate)” value was “high polyreactivity”.
With “QVQLVESGGGLVQAGGSLRLSCAASGFTFRTYAMGWSRQAPGKERELVAAITVSGGTYYADSVKGRFTISRDNAKNTVYLQMNSLKPEDTAVYYCAAGYWNDFDWGQGTQVTVSS” the “polyreactivity (PSR sort gate)” value was “low polyreactivity”.
For “QVQLVESGGGLVQAGGSLRLSCAASGFTFRTYAMGWYRQAPGKERELVAAITGRGSNTYYADSVKGRFTISRDNAKNTVYLQMNSLKPEDTAVYYCNARYYDYRVALRYDYWGQGTQVTVSS”, the “polyreactivity (PSR sort gate)” value was “high polyreactivity”.
In the case of “QVQLVESGGGLVQAGGSLRLSCAASGFTFRTYAMGWYRQAPGKERELVSAITGSGGRTYYADSVKGRFTISRDYAKNTVYLQMNSLKPEDTAVYYCAADYVVPWAFWTFRFDYWGQGTQVTVSS”, the “polyreactivity (PSR sort gate)” value was “low polyreactivity”.
With “QVQLVESGGGLVQAGGSLRLSCAASGFTFRVDAMGWYRQAPGKERELVAAISVRGDSTYYADSVKGRFTISRDNAKNTVYVQMNSLKPEDTAVYYSAAAVRTISRFTFYYWGQGTQVTVSS” the “polyreactivity (PSR sort gate)” value was “high polyreactivity”.
For “QVQLVESGGGLVQAGGSLRLSCAASGFTFRWYTMGWYRQAPGKERELFAAITGSGCTTYYADSVKGRFTISRDNAKNTVYLQMNSLKPEDTAVYYCAVVSGSLRTRYTYYYWGLGTQVTVSS”, the “polyreactivity (PSR sort gate)” value was “high polyreactivity”.
In the case of “QVQLVESGGGLVQAGGSLRLSCAASGFTFRWYTMGWYRQAPGKERELVASIRYGGGSTYYADSVKGRFTISRDNAKNTVYLQMNSLKPEDTAVYYCAAESAWTSQYDYWGVGTQVTVSS”, the “polyreactivity (PSR sort gate)” value was “high polyreactivity”.
In the case of “QVQLVESGGGLVQAGGSLRLSCAASGFTFRWYTMVWYRQAPGKERELVAAITGSGCTTYYADSVKGRFTISRDNAKNTVYLQMNSLKPEDTAVYYCAARTATSSPSWYEYWGQGTQVTVSS”, the “polyreactivity (PSR sort gate)” value was “high polyreactivity”.
In the case of “QVQLVESGGGLVQAGGSLRLSCAASGFTFRYYAMGWYRQAHGKERELVASITGGGRTYYADSVKGRFTISRDNAKNTVYLQMNSLKPEDTAVYYCATLLAYRLGSGYDSWGQGTQVTVSS”, the “polyreactivity (PSR sort gate)” value was “high polyreactivity”.
In the case of “QVQLVESGGGLVQAGGSLRLSCAASGFTFRYYAMGWYRQAPGKEREFVAAIRRSGANTYYADSVKGRFTISRDNAKNTVYLQMNSLKPEDTAVYYCAADKNYYPYKFDYWGQGTQVTVSS”, the “polyreactivity (PSR sort gate)” value was “high polyreactivity”.
With “QVQLVESGGGLVQAGGSLRLSCAASGFTFRYYAMGWYRQAPGKERELVAAINSGDSTNYADSVKGRFTISRDNAKNTVYLQMNSLKPEDTAVYYCATRLWKIPGAMYYWGQGTQVTVSS” the “polyreactivity (PSR sort gate)” value was “high polyreactivity”.
With “QVQLVESGGGLVQAGGSLRLSCAASGFTFRYYAMGWYRQAPGKERELVAAISAGGGSTYYADSVKGRFTISRDNAKNTVYLQMNSLKPEDTAGYYCAAAGARPGYDYWGQGTQVTVSS” the “polyreactivity (PSR sort gate)” value was “high polyreactivity”.
For “QVQLVESGGGLVQAGGSLRLSCAASGFTFRYYAMGWYRQAPGKERELVAAISARGTSTYYADSVKGRFTISRDNAKITVYLQMNSLKPEDTAVYYCAARYGLYPARGYDYWGQGTQVSVSS”, the “polyreactivity (PSR sort gate)” value was “high polyreactivity”.
For “QVQLVESGGGLVQAGGSLRLSCAASGFTFRYYAMGWYRQAPGKERELVAAISYNGGSTYYADSVKGRFTISRDNAKNTVYLQMNSLKPEDTAVYYCAADGGRRFGYWGQGTQVTVSS”, the “polyreactivity (PSR sort gate)” value was “high polyreactivity”.
In the case of “QVQLVESGGGLVQAGGSLRLSCAASGFTFRYYAMGWYRQAPGKERELVAGISSRGGSTYYADSVKGRFTISRDNAKNTDYLQMNSLKTEDTAVYYCATERFLLGLGYDYWGQGTQVTVSS”, the “polyreactivity (PSR sort gate)” value was “high polyreactivity”.
In the case of “QVQLVESGGGLVQAGGSLRLSCAASGFTFRYYAMGWYRQAPGKERELVASITGGGRTYYADSVKGRFTISRDNAKNTVYLQMNSLKPEDTAVYYCATLLAYRLGSGYDSWGQGTQVTVSS”, the “polyreactivity (PSR sort gate)” value was “high polyreactivity”.
With “QVQLVESGGGLVQAGGSLRLSCAASGFTFRYYVMGWYRQAPGNEREFVAAITWADGSTFYAVSVKGRFTISRDKAKNTDYLHMNSLKPEDTAVYYCAADYSRTYRAYDYWGQGTQVTVSS” the “polyreactivity (PSR sort gate)” value was “low polyreactivity”.
In the case of “QVQLVESGGGLVQAGGSLRLSCAASGFTFSDHAMGWYRQAPGKERELVAAISRSRGNTHYADSVKGRFTISRDNAKNTVYLQMNSLKPEDTAVYYCNAVQGQGQYEYWGQATQVTVSS”, the “polyreactivity (PSR sort gate)” value was “high polyreactivity”.
For “QVQLVESGGGLVQAGGSLRLSCAASGFTFSDNAMVWYRQAPGKERELVAAISEGSGITYYADSVKGRFTISRDNAKNTVTLQMNSLKPEDNAVYYCAADWLSKYDYWGQGTQVTVSS”, the “polyreactivity (PSR sort gate)” value was “low polyreactivity”.
For “QVQLVESGGGLVQAGGSLRLSCAASGFTFSFYAMGWYIQAPGKERELVAVISKSGGRTYYADSVKGRFTISRDNAKNTVYLQMNSLKPEDTAVYYCAAKRTSTRIYTFEYWGQGTQVTVSS”, the “polyreactivity (PSR sort gate)” value was “high polyreactivity”.
In the case of “QVQLVESGGGLVQAGGSLRLSCAASGFTFSFYAMGWYRQAPGKERELVAAISSGGRTSYADSVKGRFTISRDNAKNTVYLQMNSLKPEDTAVYYCAASYPGRYWLYRYEYWGQGTQVTVSS”, the “polyreactivity (PSR sort gate)” value was “high polyreactivity”.
For “QVQLVESGGGLVQAGGSLRLSCAASGFTFSFYAMGWYRQAPGKERELVAAITWSGGNTYYADSVKGRFTISRDNAKNTVDLQMNSLKPEDTAVYYCAARGPASVRYYYWGQGTQVTVSS”, the “polyreactivity (PSR sort gate)” value was “high polyreactivity”.
In the case of “QVQLVESGGGLVQAGGSLRLSCAASGFTFSFYAMGWYRQAPGKERELVAGISKRGGSTYYADSVKGRFTISRDNAKKTVFLQMNSLKPEDTAVYYCARSYYTNGNALKRDYWGQGTQVTVSS”, the “polyreactivity (PSR sort gate)” value was “high polyreactivity”.
In the case of “QVQLVESGGGLVQAGGSLRLSCAASGFTFSFYAMGWYRQAPGKERELVATISSGGSTTYADSVKGRFTISRDNAKNTVYLQMNSLKPEDTEVYYCAARYGRVRNYRYDYWGQGTQVTVSS”, the “polyreactivity (PSR sort gate)” value was “high polyreactivity”.
For “QVQLVESGGGLVQAGGSLRLSCAASGFTFSFYAMGWYRQAPGKERELVATISSGGSTTYAVSVKGRFTISRDNAKNTVYLQMNSLKPEDTAVYYCNARPGQSGARFGYWGQGTQVTVSS”, the “polyreactivity (PSR sort gate)” value was “high polyreactivity”.
With “QVQLVESGGGLVQAGGSLRLSCAASGFTFSFYTMGWYRQAPGKERELVAAISTSGSTYYADSVKGRFTISRDNAKNTVYLQMNSLKPEDTAVYYCAAGRWWRYFTWHGYWGQGTQVTVSS” the “polyreactivity (PSR sort gate)” value was “high polyreactivity”.
In the case of “QVQLVESGGGLVQAGGSLRLSCAASGFTFSGHTMGWSRQAPGKERELVATISRTGGITYYADSVKGRFTISRDNAKNTVLLQMNSLKPEDTAVYYCNRRYYYFVYPDDYWGQGTQVTVSS”, the “polyreactivity (PSR sort gate)” value was “high polyreactivity”.

Source: the nanobody polyreactivity screen of Harvey et al. (2022)
